Results: PMC7884072, “Development of antibody-dependent cell cytotoxicity function in HIV-1 antibodies” (eLife, 2021)

Columns and labels:
Details in all cases: both partners purified
[1] = molecular target: T1, gp41 ectodomain (HIV strain C.ZA.1197MB) (HIV-1 strain C.ZA.1197MB); assay: BLI; Octet RED; mAb (8 µg/mL) captured on anti-human IgG Fc biosensors (ligand); monomeric gp41 ectodomain or gp120 as analyte in a series of up to six two-fold dilutions; 30°C; 1X PBS, 0.1% BSA, 0.005% Tween-20, 0.02% sodium azide; association 180 s, dissociation 180 s; double referencing; 1:1 model
T1 construct: gp41 ectodomain of HIV-1 Env, strain C.ZA.1197MB (clade C); Called monomeric in the legends; also called monomeric C.ZA.1197MB gp41 ectodomain; clade C gp41 ectodomain; source: bought: Immune Technology Corp
T1 chain: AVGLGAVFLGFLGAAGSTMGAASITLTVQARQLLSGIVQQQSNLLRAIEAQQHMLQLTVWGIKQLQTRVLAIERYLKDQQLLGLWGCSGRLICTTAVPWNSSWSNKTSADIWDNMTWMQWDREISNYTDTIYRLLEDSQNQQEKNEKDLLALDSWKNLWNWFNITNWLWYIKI

[2] = molecular target: T2, gp120 (HIV strain BL035.W6M.C1) (HIV-1 strain BL035.W6M.C1); assay: BLI; mAb lineage members captured on anti-human IgG Fc biosensors (ligand); monomeric gp41 ectodomain or BL035.W6M.C1 gp120 as analyte at 62.5 nM
T2 construct: gp120, the surface subunit cut from HIV-1 Env gp160, strain BL035.W6M.C1 (clade A); Called monomeric in the legends; also called monomeric BL035.W6M.C1 gp120; monomeric gp120; source: bought: Immune Technology Corp

[3] = molecular target: T2, gp120 (HIV strain BL035.W6M.C1); assay: BLI; 157-lineage naive antibodies as ligand; monomeric BL035 gp120 as analyte at 250 nM; without the double reference approach

B1: 072-0VH0VK (antibody, V domains shown)
VH: QVQLVQSGAEVKKPGSSVKVSCKASGGTFSSYAISWVRQAPGQGLEWMGGIIPILGIANYAQKFQGRVTITADESTSTAYMELSSLRSEDTAVYYCARHYDDSSGFFYGAFDIWGQGTTLTVSS
VL: DIQMTQSPSSLSASVGDRVTITCRASQGISNYLAWYQQKPGKVPKLLIYAASTLQSGVPSRFSGSGSGTDFTLTISSLQPEDVATYYCQKYNSAPWTFGQGTKVEIK
notes: 072-0VH, inferred naive heavy chain variable region (VH 1-69*11, DH 4-17*01, JH 3*02); 072-0VK, inferred naive kappa variable region (VK 1-27*01, JK 1*01); Whole human IgG1, kappa (Igγ1 vector Addgene 80795, Igκ vector Addgene 80796); also called 072 lineage inferred naive mAb; inferred naive precursor of the 072 lineage; source: HEK 293F, co-transfected, purified (protein G)
Kd [1]: 34.4 nM

B2: 105-1VH1VK (antibody, V domains shown)
VH: EVQLVESGGGLVKPGGSLRLSCAASGFSFTNAYMSWVRQAPGKGLEWVGRIKSKADDGTTDYAAPVKGRFTISRDDSKNTLYLQMNSLKTEDTAVYYCTTGVMIANQDSYYYMDVWGKGTTVAVSS
VL: not shown
notes: Whole human IgG1, kappa; source: HEK 293F, co-transfected, purified (protein G)
binding result [2]: binds

B3: 157-0VHAVK (antibody, V domains shown)
VH: QVQLVQSGAEVKKPGSSVKVSCKASGGTFSSYAISWVRQAPGQGLEWMGGIIPILGIANYAQKFQGRVTITADESTSTAYMELSSLRSEDTAVYYCARGKVSSSDWFQPIYYYYMDVWGGGTTVTVSS
VL: EIVMTQSPATLSVSPGERATLSCRASQSISSYLAWYQQKPGQAPRLLIYDASNRATGIPARFSGSGSGTDFTLTISSLEPEDFAVYYCQQRSNSLPFGQGTRLEIK
notes: as for B2
binding result [3]: no binding (tested: 250 nM)
